Among the data in patent publication US20240018502A1 are EC50 hC3 cleavage and EC50 of hC3 cleavage values, retold here.

To fix the notation:
B1: MTSP-1 protease domain I41S/D60bT/F60eS/Y60gW/ins97aV/F97D/T98P/F99L/C122S/G151H/Q175L/Q192E (enzyme)
chain: VVGGTDADEGEWPWQVSLHALGQGHSCGASLISPNWLVSAAHCYIDTRGSRWSDPTQWTAFLGLHDQSQRSAPGVQERRLKRIISHPFFNDDVPLDYDIALLELEKPAEYSSMVRPISLPDASHVFPAGKAIWVTGWGHTQYGGTHALILQKGEIRVINQTTCENLLPQLITPRMMCVGFLSGGVDSCEGDSGGPLSSVEADGRIFQAGVVSWGDGCAQRNKPGVYTRLPLFRDWIKENTGV
B2: MTSP-1 protease domain Q38H/I41S/D60bT/F60eS/Y60gW/F97D/ins97aA/T98P/F99L/C122S/G151H/Q175L/Q192E (enzyme)
chain: VVGGTDADEGEWPWQVSLHALGHGHSCGASLISPNWLVSAAHCYIDTRGSRWSDPTQWTAFLGLHDQSQRSAPGVQERRLKRIISHPFFNDDAPLDYDIALLELEKPAEYSSMVRPISLPDASHVFPAGKAIWVTGWGHTQYGGTHALILQKGEIRVINQTTCENLLPQLITPRMMCVGFLSGGVDSCEGDSGGPLSSVEADGRIFQAGVVSWGDGCAQRNKPGVYTRLPLFRDWIKENTGV
B3: MTSP-1 protease domain Q38H/I41S/D60bT/F60eS/Y60gW/ins97aV/F97D/F99L/C122S/G151H/Q175L/Q192E (enzyme)
chain: VVGGTDADEGEWPWQVSLHALGHGHSCGASLISPNWLVSAAHCYIDTRGSRWSDPTQWTAFLGLHDQSQRSAPGVQERRLKRIISHPFFNDDVTLDYDIALLELEKPAEYSSMVRPISLPDASHVFPAGKAIWVTGWGHTQYGGTHALILQKGEIRVINQTTCENLLPQLITPRMMCVGFLSGGVDSCEGDSGGPLSSVEADGRIFQAGVVSWGDGCAQRNKPGVYTRLPLFRDWIKENTGV
B4: MTSP-1 protease domain Q38H/D60bT/F60eS/Y60gW/ins97aV/F97D/T98P/F99L/C122S/G151H/Q175L/Q192E (enzyme)
chain: VVGGTDADEGEWPWQVSLHALGHGHICGASLISPNWLVSAAHCYIDTRGSRWSDPTQWTAFLGLHDQSQRSAPGVQERRLKRIISHPFFNDDVPLDYDIALLELEKPAEYSSMVRPISLPDASHVFPAGKAIWVTGWGHTQYGGTHALILQKGEIRVINQTTCENLLPQLITPRMMCVGFLSGGVDSCEGDSGGPLSSVEADGRIFQAGVVSWGDGCAQRNKPGVYTRLPLFRDWIKENTGV
B5: MTSP-1 protease domain Q38H/I41S/D60bT/F60eS/Y60gW/F97D/ins97aV/T98P/F99L/C122S/G151H/Q192E (enzyme)
chain: VVGGTDADEGEWPWQVSLHALGHGHSCGASLISPNWLVSAAHCYIDTRGSRWSDPTQWTAFLGLHDQSQRSAPGVQERRLKRIISHPFFNDDVPLDYDIALLELEKPAEYSSMVRPISLPDASHVFPAGKAIWVTGWGHTQYGGTHALILQKGEIRVINQTTCENLLPQQITPRMMCVGFLSGGVDSCEGDSGGPLSSVEADGRIFQAGVVSWGDGCAQRNKPGVYTRLPLFRDWIKENTGV
B6: MTSP-1 protease domain Q38H/I41S/D60bT/F60eS/Y60gW/ins97aV/F97D/T98P/C122S/G151H/Q175L/Q192E (enzyme)
chain: VVGGTDADEGEWPWQVSLHALGHGHSCGASLISPNWLVSAAHCYIDTRGSRWSDPTQWTAFLGLHDQSQRSAPGVQERRLKRIISHPFFNDDVPFDYDIALLELEKPAEYSSMVRPISLPDASHVFPAGKAIWVTGWGHTQYGGTHALILQKGEIRVINQTTCENLLPQLITPRMMCVGFLSGGVDSCEGDSGGPLSSVEADGRIFQAGVVSWGDGCAQRNKPGVYTRLPLFRDWIKENTGV
B7: MTSP-1 protease domain Q38H/I41S/D60bT/F60eS/Y60gW/ins97aV/T98P/F99L/C122S/G151H/Q175L/Q192E (enzyme)
chain: VVGGTDADEGEWPWQVSLHALGHGHSCGASLISPNWLVSAAHCYIDTRGSRWSDPTQWTAFLGLHDQSQRSAPGVQERRLKRIISHPFFNDFVPLDYDIALLELEKPAEYSSMVRPISLPDASHVFPAGKAIWVTGWGHTQYGGTHALILQKGEIRVINQTTCENLLPQLITPRMMCVGFLSGGVDSCEGDSGGPLSSVEADGRIFQAGVVSWGDGCAQRNKPGVYTRLPLFRDWIKENTGV
B8: MTSP-1 protease domain Q38H/I41S/D60bT/Y60gW/ins97aV/F97D/T98P/F99L/C122S/G151H/Q175L/Q192E (enzyme)
chain: VVGGTDADEGEWPWQVSLHALGHGHSCGASLISPNWLVSAAHCYIDTRGFRWSDPTQWTAFLGLHDQSQRSAPGVQERRLKRIISHPFFNDDVPLDYDIALLELEKPAEYSSMVRPISLPDASHVFPAGKAIWVTGWGHTQYGGTHALILQKGEIRVINQTTCENLLPQLITPRMMCVGFLSGGVDSCEGDSGGPLSSVEADGRIFQAGVVSWGDGCAQRNKPGVYTRLPLFRDWIKENTGV
B9: MTSP-1 protease domain Q38H/I41S/F60eS/Y60gW/ins97aV/F97D/T98P/F99L/C122S/G151H/Q175L/Q192E (enzyme)
chain: VVGGTDADEGEWPWQVSLHALGHGHSCGASLISPNWLVSAAHCYIDDRGSRWSDPTQWTAFLGLHDQSQRSAPGVQERRLKRIISHPFFNDDVPLDYDIALLELEKPAEYSSMVRPISLPDASHVFPAGKAIWVTGWGHTQYGGTHALILQKGEIRVINQTTCENLLPQLITPRMMCVGFLSGGVDSCEGDSGGPLSSVEADGRIFQAGVVSWGDGCAQRNKPGVYTRLPLFRDWIKENTGV
B10: MTSP-1 protease domain Q38H/I41S/D60bT/F60eS/Y60gW/ins97aV/F97D/T98P/F99L/C122S/G151H/Q175L (enzyme)
chain: VVGGTDADEGEWPWQVSLHALGHGHSCGASLISPNWLVSAAHCYIDTRGSRWSDPTQWTAFLGLHDQSQRSAPGVQERRLKRIISHPFFNDDVPLDYDIALLELEKPAEYSSMVRPISLPDASHVFPAGKAIWVTGWGHTQYGGTHALILQKGEIRVINQTTCENLLPQLITPRMMCVGFLSGGVDSCQGDSGGPLSSVEADGRIFQAGVVSWGDGCAQRNKPGVYTRLPLFRDWIKENTGV
B11: MTSP-1 protease domain Q38H/I41S/D60bT/F60eS/Y60gW/ins97aV/F97D/T98P/F99L/C122S/Q175L/Q192E (enzyme)
chain: VVGGTDADEGEWPWQVSLHALGHGHSCGASLISPNWLVSAAHCYIDTRGSRWSDPTQWTAFLGLHDQSQRSAPGVQERRLKRIISHPFFNDDVPLDYDIALLELEKPAEYSSMVRPISLPDASHVFPAGKAIWVTGWGHTQYGGTGALILQKGEIRVINQTTCENLLPQLITPRMMCVGFLSGGVDSCEGDSGGPLSSVEADGRIFQAGVVSWGDGCAQRNKPGVYTRLPLFRDWIKENTGV
B12: MTSP-1 protease domain Q38H/I41S/D60bT/F60eS/Y60gW/D96I/F97N/T98G/F99L/C122S/G151N/Q175L/Q192D (enzyme)
chain: VVGGTDADEGEWPWQVSLHALGHGHSCGASLISPNWLVSAAHCYIDTRGSRWSDPTQWTAFLGLHDQSQRSAPGVQERRLKRIISHPFFNINGLDYDIALLELEKPAEYSSMVRPISLPDASHVFPAGKAIWVTGWGHTQYGGTNALILQKGEIRVINQTTCENLLPQLITPRMMCVGFLSGGVDSCDGDSGGPLSSVEADGRIFQAGVVSWGDGCAQRNKPGVYTRLPLFRDWIKENTGV
B13: MTSP-1 protease domain Q38V/I41G/F60eG/Y60gW/D96P/F97N/T98G/F99L/C122S/G151N/Q175L/Q192D (enzyme)
chain: VVGGTDADEGEWPWQVSLHALGVGHGCGASLISPNWLVSAAHCYIDDRGGRWSDPTQWTAFLGLHDQSQRSAPGVQERRLKRIISHPFFNPNGLDYDIALLELEKPAEYSSMVRPISLPDASHVFPAGKAIWVTGWGHTQYGGTNALILQKGEIRVINQTTCENLLPQLITPRMMCVGFLSGGVDSCDGDSGGPLSSVEADGRIFQAGVVSWGDGCAQRNKPGVYTRLPLFRDWIKENTGV
B14: MTSP-1 protease domain Q38H/I41A/D60bV/F60eR/Y60gW/F97D/F99L/C122S/G151N/Q175L/Q192D (enzyme)
chain: VVGGTDADEGEWPWQVSLHALGHGHACGASLISPNWLVSAAHCYIDVRGRRWSDPTQWTAFLGLHDQSQRSAPGVQERRLKRIISHPFFNDDTLDYDIALLELEKPAEYSSMVRPISLPDASHVFPAGKAIWVTGWGHTQYGGTNALILQKGEIRVINQTTCENLLPQLITPRMMCVGFLSGGVDSCDGDSGGPLSSVEADGRIFQAGVVSWGDGCAQRNKPGVYTRLPLFRDWIKENTGV
B15: MTSP-1 protease domain Q38Y/I41E/D60bS/F60eV/Y60gF/D96W/F97N/T98G/F99L/C122S/G151N/Q175L/Q192D (enzyme)
chain: VVGGTDADEGEWPWQVSLHALGYGHECGASLISPNWLVSAAHCYIDSRGVRFSDPTQWTAFLGLHDQSQRSAPGVQERRLKRIISHPFFNWNGLDYDIALLELEKPAEYSSMVRPISLPDASHVFPAGKAIWVTGWGHTQYGGTNALILQKGEIRVINQTTCENLLPQLITPRMMCVGFLSGGVDSCDGDSGGPLSSVEADGRIFQAGVVSWGDGCAQRNKPGVYTRLPLFRDWIKENTGV
B16: MTSP-1 protease domain Q38K/I41G/F60eG/Y60gW/D96P/F97N/T98G/F99L/C122S/G151N/Q175L/Q192D (enzyme)
chain: VVGGTDADEGEWPWQVSLHALGKGHGCGASLISPNWLVSAAHCYIDDRGGRWSDPTQWTAFLGLHDQSQRSAPGVQERRLKRIISHPFFNPNGLDYDIALLELEKPAEYSSMVRPISLPDASHVFPAGKAIWVTGWGHTQYGGTNALILQKGEIRVINQTTCENLLPQLITPRMMCVGFLSGGVDSCDGDSGGPLSSVEADGRIFQAGVVSWGDGCAQRNKPGVYTRLPLFRDWIKENTGV
B17: MTSP-1 protease domain Q38H/I41S/D60bT/F60eG/Y60gW/D96V/F97N/T98G/F99L/C122S/G151N/Q175L/Q192D (enzyme)
chain: VVGGTDADEGEWPWQVSLHALGHGHSCGASLISPNWLVSAAHCYIDTRGGRWSDPTQWTAFLGLHDQSQRSAPGVQERRLKRIISHPFFNVNGLDYDIALLELEKPAEYSSMVRPISLPDASHVFPAGKAIWVTGWGHTQYGGTNALILQKGEIRVINQTTCENLLPQLITPRMMCVGFLSGGVDSCDGDSGGPLSSVEADGRIFQAGVVSWGDGCAQRNKPGVYTRLPLFRDWIKENTGV
B18: MTSP-1 protease domain Q38H/I41S/D60bT/F60eG/D96Y/F97N/T98G/F99L/C122S/G151N/Q175L/Q192D (enzyme)
chain: VVGGTDADEGEWPWQVSLHALGHGHSCGASLISPNWLVSAAHCYIDTRGGRYSDPTQWTAFLGLHDQSQRSAPGVQERRLKRIISHPFFNYNGLDYDIALLELEKPAEYSSMVRPISLPDASHVFPAGKAIWVTGWGHTQYGGTNALILQKGEIRVINQTTCENLLPQLITPRMMCVGFLSGGVDSCDGDSGGPLSSVEADGRIFQAGVVSWGDGCAQRNKPGVYTRLPLFRDWIKENTGV
B19: MTSP-1 protease domain Q38H/I41S/D60bT/F60eS/Y60gW/F97D/T98P/F99L/C122S/G151H/Q175L/Q192E (enzyme)
chain: VVGGTDADEGEWPWQVSLHALGHGHSCGASLISPNWLVSAAHCYIDTRGSRWSDPTQWTAFLGLHDQSQRSAPGVQERRLKRIISHPFFNDDPLDYDIALLELEKPAEYSSMVRPISLPDASHVFPAGKAIWVTGWGHTQYGGTHALILQKGEIRVINQTTCENLLPQLITPRMMCVGFLSGGVDSCEGDSGGPLSSVEADGRIFQAGVVSWGDGCAQRNKPGVYTRLPLFRDWIKENTGV
B20: MTSP-1 protease domain with C122S (enzyme)
chain: VVGGTDADEGEWPWQVSLHALGQGHICGASLISPNWLVSAAHCYIDDRGFRYSDPTQWTAFLGLHDQSQRSAPGVQERRLKRIISHPFFNDFTFDYDIALLELEKPAEYSSMVRPISLPDASHVFPAGKAIWVTGWGHTQYGGTGALILQKGEIRVINQTTCENLLPQQITPRMMCVGFLSGGVDSCQGDSGGPLSSVEADGRIFQAGVVSWGDGCAQRNKPGVYTRLPLFRDWIKENTGV

For this assay, the target named is plasma purified human complement protein C3 (human) (UniProt P01024). The assay is described as follows: cell-based or functional assay.
plasma purified human complement protein C3 (human), sequence (P01024 23-667, chain 1 of 2): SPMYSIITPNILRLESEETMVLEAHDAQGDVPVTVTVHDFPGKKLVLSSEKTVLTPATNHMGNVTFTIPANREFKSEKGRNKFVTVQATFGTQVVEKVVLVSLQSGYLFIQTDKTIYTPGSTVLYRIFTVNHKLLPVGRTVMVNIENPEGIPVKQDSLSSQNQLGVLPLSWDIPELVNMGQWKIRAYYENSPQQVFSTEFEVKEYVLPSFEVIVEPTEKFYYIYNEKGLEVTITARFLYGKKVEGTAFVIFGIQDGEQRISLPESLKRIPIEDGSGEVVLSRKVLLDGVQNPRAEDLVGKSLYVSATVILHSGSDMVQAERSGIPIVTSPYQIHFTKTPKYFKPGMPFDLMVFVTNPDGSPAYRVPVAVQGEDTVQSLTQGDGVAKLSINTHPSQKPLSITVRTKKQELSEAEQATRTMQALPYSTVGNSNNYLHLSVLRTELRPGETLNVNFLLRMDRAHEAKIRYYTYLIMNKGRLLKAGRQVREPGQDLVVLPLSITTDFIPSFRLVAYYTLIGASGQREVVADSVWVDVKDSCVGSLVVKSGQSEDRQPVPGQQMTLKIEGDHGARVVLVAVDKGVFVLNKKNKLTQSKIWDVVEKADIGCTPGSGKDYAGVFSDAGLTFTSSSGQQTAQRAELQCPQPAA
plasma purified human complement protein C3 (human), sequence (P01024 672-1663, chain 2 of 2): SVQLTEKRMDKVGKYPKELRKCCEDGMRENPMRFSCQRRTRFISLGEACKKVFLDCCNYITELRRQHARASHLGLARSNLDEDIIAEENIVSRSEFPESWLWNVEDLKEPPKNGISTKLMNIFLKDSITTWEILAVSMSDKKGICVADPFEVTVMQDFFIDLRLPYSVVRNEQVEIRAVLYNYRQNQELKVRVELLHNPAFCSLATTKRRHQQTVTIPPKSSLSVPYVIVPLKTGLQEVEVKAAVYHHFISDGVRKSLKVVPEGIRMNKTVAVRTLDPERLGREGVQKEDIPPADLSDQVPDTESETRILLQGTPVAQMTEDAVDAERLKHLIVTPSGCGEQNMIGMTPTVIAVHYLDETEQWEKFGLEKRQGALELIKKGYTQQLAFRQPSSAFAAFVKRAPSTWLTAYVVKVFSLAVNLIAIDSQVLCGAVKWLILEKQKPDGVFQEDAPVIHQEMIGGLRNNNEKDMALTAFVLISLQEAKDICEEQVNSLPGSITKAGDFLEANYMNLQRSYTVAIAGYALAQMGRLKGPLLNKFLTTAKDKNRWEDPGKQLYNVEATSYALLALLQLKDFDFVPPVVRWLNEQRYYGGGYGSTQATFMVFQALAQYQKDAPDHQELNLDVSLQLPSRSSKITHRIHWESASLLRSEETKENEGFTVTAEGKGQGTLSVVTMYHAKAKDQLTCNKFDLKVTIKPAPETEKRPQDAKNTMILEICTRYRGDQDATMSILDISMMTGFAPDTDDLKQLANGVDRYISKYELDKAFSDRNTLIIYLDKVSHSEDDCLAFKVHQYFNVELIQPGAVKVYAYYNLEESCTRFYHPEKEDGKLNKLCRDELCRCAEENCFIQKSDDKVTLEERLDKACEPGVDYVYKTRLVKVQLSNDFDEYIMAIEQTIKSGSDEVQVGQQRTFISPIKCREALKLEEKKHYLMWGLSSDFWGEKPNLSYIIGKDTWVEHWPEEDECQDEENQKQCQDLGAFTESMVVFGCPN
On to B1, for which the EC50 hC3 cleavage is 6.33 nM. B2 yielded an EC50 hC3 cleavage of 4.07 nM. The molecule B3 had an EC50 hC3 cleavage of 7.82 nM.

B4 returned an EC50 hC3 cleavage of 66.7 nM.

Take B5: the EC50 hC3 cleavage is 11.9 nM.

On to B6, for which the EC50 hC3 cleavage was determined as 11.5 nM. B7: the EC50 hC3 cleavage was found to be 3.19 nM. On to B8, for which the EC50 hC3 cleavage was 10.4 nM. B9: the EC50 hC3 cleavage is 3.83 nM. The same measure, in the same setting: as for B10, the figure is 1.31 nM. The same measure, in the same setting: the same measure for B11: 4.86 nM; for B12: 3.04 nM.

B13 registered an EC50 hC3 cleavage of 27.4 nM. The same measure, in the same setting: as for B14, the figure is 7.04 nM; as for B15, 227 nM; as for B16, 62.7 nM. In turn, B17 showed an EC50 hC3 cleavage of 4.47 nM. Regarding B18, the EC50 hC3 cleavage was determined as 9.56 nM. B19 displayed an EC50 hC3 cleavage of 25.7 nM. Take B20: the EC50 of hC3 cleavage was 13.9 nM.
